Results published in the supplement of paper PMC5998384.

Assays:
[1] = system: HeLa Kyoto; experiment: solubility in G1/S (NP-40 vs SDS abundance) (log2 ratio); higher = more soluble; conditions: cell cycle stage: G1/S
[2] = system: HeLa Kyoto; experiment: melting temperature (median over replicates), in situ; higher = more thermally stable
[3] = system: HeLa Kyoto; experiment: solubility change mitosis vs G1/S (difference of NP-40 vs SDS log2 ratios) (log2 ratio difference); higher = more soluble in mitosis
[4] = system: HeLa Kyoto; experiment: thermal stability score vs G1/S (z-score of summed log2 fold changes over temperatures); higher = more thermally stable than in G1/S
[5] = cell cycle stage: early G1 (4.5 h after nocodazole release)
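Wherever melting temperature (median over replicates), in situ is given: HeLa Kyoto cells synchronized by double thymidine or nocodazole block, proteins quantified by TMT10plex mass spectrometry, three independent biological replicates.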
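Wherever solubility change mitosis vs G1/S (difference of NP-40 vs SDS log2 ratios) is given: synchronized HeLa Kyoto cells (double thymidine block for G1/S, nocodazole release for mitosis), protein amounts in NP-40 versus SDS lysates quantified by mass spectrometry, three biological replicates.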
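Wherever solubility in G1/S (NP-40 vs SDS abundance) is given: HeLa Kyoto cells arrested at G1/S by double thymidine block, proteins quantified by TMT10plex mass spectrometry in mild NP-40 versus SDS extracts, three biological replicates.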
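Wherever thermal stability score vs G1/S (z-score of summed log2 fold changes over temperatures) is given: synchronized HeLa Kyoto cells, proteins quantified by TMT10plex mass spectrometry, three biological replicates, mitosis taken 0.5 h after nocodazole release, G1/S directly after double thymidine block.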

MKMADRSGKIIPGQVYIEVEYDYEYEAKDRKIVIKQGERYILVKKTNDDWWQVKPDENSKAFYVPAQYVKEVTRKALMPPVKQVAGLPNNSTKIMQSLHLQRSTENVNKLPELSSFGKPSSSVQGTGLIRDANQNFGPSYNQGQTVNLSLDLTHNNGKFNNDSHSPKVSSQNRTRSFGHFPGPEFLDVEKTSFSQEQSCDSAGEGSERIHQDSESGDELSSSSTEQIRATTPPNQGRPDSPVYANLQELKISQSALPPLPGSPAIQINGEWETHKDSSGRCYYYNRGTQERTWKPPRWTRDASISKGDFQNPGDQELLSSEENYYSTSYSQSDSQCGSPPRGWSEELDERGHTLYTSDYTNEKWLKHVDDQGRQYYYSADGSRSEWELPKYNASSQQQREIIKSRSLDRRLQEPIVLTKWRHSTIVLDTNDKESPTASKPCFPENESSPSSPKHQDTASSPKDQEKYGLLNVTKIAENGKKVRKNWLSSWAVLQGSSLLFTKTQGSSTSWFGSNQSKPEFTVDLKGATIEMASKDKSSKKNVFELKTRQGTELLIQSDNDTVINDWFKVLSSTINNQAVETDEGIEEEIPDSPGIEKHDKEKEQKDPKKLRSFKVSSIDSSEQKKTKKNLKKFLTRRPTLQAVREKGYIKDQVFGSNLANLCQRENGTVPKFVKLCIEHVEEHGLDIDGIYRVSGNLAVIQKLRFAVNHDEKLDLNDSKWEDIHVITGALKMFFRELPEPLFTFNHFNDFVNAIKQEPRQRVAAVKDLIRQLPKPNQDTMQILFRHLRRVIENGEKNRMTYQSIAIVFGPTLLKPEKETGNIAVHTVYQNQIVELILLELSSIFGR [ARHGAP12]
solubility in G1/S (log2) [1]: -0.0332 | melting temperature ([2]; cell cycle stage: G1/S): 50.7 °C | melting temperature ([2]; cell cycle stage: mitosis): 50.1 °C | solubility change mitosis (log2) [3]: -0.246 | thermal stability score [4, 5]: -0.591 | thermal stability score ([4]; cell cycle stage: mitosis): -0.433

MKPAAREARLPPRSPGLRWALPLLLLLLRLGQILCAGGTPSPIPDPSVATVATGENGITQISSTAESFHKQNGTGTPQVETNTSEDGESSGANDSLRTPEQGSNGTDGASQKTPSSTGPSPVFDIKAVSISPTNVILTWKSNDTAASEYKYVVKHKMENEKTITVVHQPWCNITGLRPATSYVFSITPGIGNETWGDPRVIKVITEPIPVSDLRVALTGVRKAALSWSNGNGTASCRVLLESIGSHEELTQDSRLQVNISGLKPGVQYNINPYLLQSNKTKGDPLGTEGGLDASNTERSRAGSPTAPVHDESLVGPVDPSSGQQSRDTEVLLVGLEPGTRYNATVYSQAANGTEGQPQAIEFRTNAIQVFDVTAVNISATSLTLIWKVSDNESSSNYTYKIHVAGETDSSNLNVSEPRAVIPGLRSSTFYNITVCPVLGDIEGTPGFLQVHTPPVPVSDFRVTVVSTTEIGLAWSSHDAESFQMHITQEGAGNSRVEITTNQSIIIGGLFPGTKYCFEIVPKGPNGTEGASRTVCNRTVPSAVFDIHVVYVTTTEMWLDWKSPDGASEYVYHLVIESKHGSNHTSTYDKAITLQGLIPGTLYNITISPEVDHVWGDPNSTAQYTRPSNVSNIDVSTNTTAATLSWQNFDDASPTYSYCLLIEKAGNSSNATQVVTDIGITDATVTELIPGSSYTVEIFAQVGDGIKSLEPGRKSFCTDPASMASFDCEVVPKEPALVLKWTCPPGANAGFELEVSSGAWNNATHLESCSSENGTEYRTEVTYLNFSTSYNISITTVSCGKMAAPTRNTCTTGITDPPPPDGSPNITSVSHNSVKVKFSGFEASHGPIKAYAVILTTGEAGHPSADVLKYTYEDFKKGASDTYVTYLIRTEEKGRSQSLSEVLKYEIDVGNESTTLGYYNGKLEPLGSYRACVAGFTNITFHPQNKGLIDGAESYVSFSRYSDAVSLPQDPGVICGAVFGCIFGALVIVTVGGFIFWRKKRKDAKNNEVSFSQIKPKKSKLIRVENFEAYFKKQQADSNCGFAEEYEDLKLVGISQPKYAAELAENRGKNRYNNVLPYDISRVKLSVQTHSTDDYINANYMPGYHSKKDFIATQGPLPNTLKDFWRMVWEKNVYAIIMLTKCVEQGRTKCEEYWPSKQAQDYGDITVAMTSEIVLPEWTIRDFTVKNIQTSESHPLRQFHFTSWPDHGVPDTTDLLINFRYLVRDYMKQSPPESPILVHCSAGVGRTGTFIAIDRLIYQIENENTVDVYGIVYDLRMHRPLMVQTEDQYVFLNQCVLDIVRSQKDSKVDLIYQNTTAMTIYENLAPVTTFGKTNGYIA [PTPRJ]
solubility in G1/S (log2) [1]: -0.204 | melting temperature ([2]; cell cycle stage: G1/S): 50.6 °C | melting temperature ([2]; cell cycle stage: mitosis): 50 °C | solubility change mitosis (log2) [3]: 0.155 | thermal stability score [4, 5]: 3.12 | thermal stability score ([4]; cell cycle stage: mitosis): -2.28

MKPDETPMFDPSLLKEVDWSQNTATFSPAISPTHPGEGLVLRPLCTADLNRGFFKVLGQLTETGVVSPEQFMKSFEHMKKSGDYYVTVVEDVTLGQIVATATLIIEHKFIHSCAKRGRVEDVVVSDECRGKQLGKLLLSTLTLLSKKLNCYKITLECLPQNVGFYKKFGYTVSEENYMCRRFLK [GNPNAT1]
solubility in G1/S (log2) [1]: 0.222 | melting temperature ([2]; cell cycle stage: G1/S): 56.2 °C | melting temperature ([2]; cell cycle stage: mitosis): 57.5 °C | solubility change mitosis (log2) [3]: -0.0779 | thermal stability score [4, 5]: -0.0383 | thermal stability score ([4]; cell cycle stage: mitosis): -1.14
